This data set concerns the target T1, APRIN (PDS5B) (UniProt Q9NTI5 1-1447).
T1 sequence: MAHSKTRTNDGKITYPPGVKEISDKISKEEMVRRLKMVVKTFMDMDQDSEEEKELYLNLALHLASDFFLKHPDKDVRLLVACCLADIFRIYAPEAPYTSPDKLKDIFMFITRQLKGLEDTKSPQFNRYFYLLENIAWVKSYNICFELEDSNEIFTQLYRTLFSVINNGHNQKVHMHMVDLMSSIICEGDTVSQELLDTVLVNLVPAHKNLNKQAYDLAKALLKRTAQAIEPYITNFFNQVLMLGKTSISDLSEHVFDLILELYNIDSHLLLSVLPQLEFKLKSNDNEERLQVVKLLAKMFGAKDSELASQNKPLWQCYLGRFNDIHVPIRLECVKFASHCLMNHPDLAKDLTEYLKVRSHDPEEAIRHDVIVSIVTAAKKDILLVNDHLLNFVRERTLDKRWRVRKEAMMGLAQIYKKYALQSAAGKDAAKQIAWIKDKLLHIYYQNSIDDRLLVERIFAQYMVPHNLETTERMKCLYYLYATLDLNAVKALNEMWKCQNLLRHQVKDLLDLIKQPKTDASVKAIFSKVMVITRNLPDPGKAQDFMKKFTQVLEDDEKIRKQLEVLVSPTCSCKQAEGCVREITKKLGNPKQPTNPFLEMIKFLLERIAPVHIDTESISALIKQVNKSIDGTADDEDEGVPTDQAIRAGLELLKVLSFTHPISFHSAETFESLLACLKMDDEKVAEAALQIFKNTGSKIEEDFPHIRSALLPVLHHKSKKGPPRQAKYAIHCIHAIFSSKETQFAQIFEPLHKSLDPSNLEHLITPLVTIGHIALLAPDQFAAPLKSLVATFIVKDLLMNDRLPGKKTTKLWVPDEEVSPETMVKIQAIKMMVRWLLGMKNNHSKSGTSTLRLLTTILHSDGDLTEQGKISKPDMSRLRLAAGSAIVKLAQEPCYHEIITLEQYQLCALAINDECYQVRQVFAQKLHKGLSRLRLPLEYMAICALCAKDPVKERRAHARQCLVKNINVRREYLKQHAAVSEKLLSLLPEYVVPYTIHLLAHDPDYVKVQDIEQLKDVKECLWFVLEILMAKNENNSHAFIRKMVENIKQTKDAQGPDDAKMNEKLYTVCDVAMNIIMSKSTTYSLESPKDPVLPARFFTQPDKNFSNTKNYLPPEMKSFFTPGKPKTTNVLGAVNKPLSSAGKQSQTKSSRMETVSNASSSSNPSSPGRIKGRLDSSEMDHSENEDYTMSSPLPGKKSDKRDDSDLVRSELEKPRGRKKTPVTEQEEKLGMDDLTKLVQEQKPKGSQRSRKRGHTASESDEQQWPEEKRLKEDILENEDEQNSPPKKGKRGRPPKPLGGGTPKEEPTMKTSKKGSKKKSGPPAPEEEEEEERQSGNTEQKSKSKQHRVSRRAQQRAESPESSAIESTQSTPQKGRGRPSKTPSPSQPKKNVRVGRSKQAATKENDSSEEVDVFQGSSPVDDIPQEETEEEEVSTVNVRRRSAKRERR
As to the kind of experiment: EMSA. (A gel shift assay detects complexes by their altered migration in electrophoresis.)

B1: ssDNA (JYM925) (ssDNA)
DNA: GGGTGAACCTGCAGGTGGGCAAAGATGTCCTAGCAATGTAATCGTCAAGCTTTATGCCGT
For B1, the binding result is “binds”.

B2: Splayed arms (JYM925/JYM926) (structured_DNA)
DNA 1: B1 DNA
DNA 2: ACGCTGCCGAATTCTACCAGTGCCAGCGACGGACATCTTTGCCCACCTGCAGGTTCACCC
For the molecule B2, the binding result is “binds”.

B3: dsDNA (JYM925/JYM945) (dsDNA)
DNA 1: B1 DNA
DNA 2: ACGGCATAAAGCTTGACGATTACATTGCTAGGACATCTTTGCCCACCTGCAGGTTCACCC
With B3, the binding result is on record as “no binding”.

B4: Holliday junction (JYM925/926/927/928) (structured_DNA)
DNA 1: B1 DNA
DNA 2: B2 DNA 2
DNA 3: ACGGCATAAAGCTTGACGATTACATTGCTACATGGAGCTGTCTAGAGGATCCGACTATCG
DNA 4: CGATAGTCGGATCCTCTAGACAGCTCCATGGTCGCTGGCACTGGTAGAATTCGGCAGCGT
Consider B4, for which the binding result is “binds”.
